Assay results published in patent US20250186594A1.

Columns and labels:
[1] = biological target: Fc fused human IL-18BP isoform a (IL-18BPa) (human) (UniProt O95998); assay: SPR, Fc-IL-18BPa captured, 1:1 fit
[2] = biological target: His-tagged human IL-18BP (human) (UniProt O95998); assay: AlphaLISA of free IL-18BP

Fc fused human IL-18BP isoform a (IL-18BPa) (human), sequence (O95998 31-194): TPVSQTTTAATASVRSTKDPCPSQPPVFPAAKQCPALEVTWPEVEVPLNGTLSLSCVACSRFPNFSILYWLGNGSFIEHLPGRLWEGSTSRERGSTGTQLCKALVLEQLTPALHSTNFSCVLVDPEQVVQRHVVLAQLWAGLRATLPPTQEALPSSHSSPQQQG

Kd [1] [nM]	koff [1] [s⁻¹]	kon [1] [M⁻¹ s⁻¹]	Kd [2] [nM]	Substance
4.75	0.00386	813000	19.7	IL-18 variant SEQ ID NO: 30 with 5 kDa PEG (E6K, V11I, C38A, K53A, T63A, C76A, C127A, C68-5kPEG) (from UniProt Q14116 37-193) (ligand)
6.83	0.0036	527000	15.7	IL-18 variant SEQ ID NO: 30 with 10 kDa PEG (E6K, V11I, C38A, K53A, T63A, C76A, C127A, C68-10kPEG) (from UniProt Q14116 37-193) (ligand)
12	0.00397	330000	19.7	IL-18 variant SEQ ID NO: 30 with 20 kDa PEG (E6K, V11I, C38A, K53A, T63A, C76A, C127A, C68-20kPEG) (from UniProt Q14116 37-193) (ligand)
45.1	0.00451	106000	26.3	IL-18 variant SEQ ID NO: 30 with 30 kDa PEG (E6K, V11I, C38A, K53A, T63A, C76A, C127A, C68-30kPEG) (from UniProt Q14116 37-193) (ligand)
1.8	0.00311	1.63e+06	48.4	IL-18 variant SEQ ID NO: 57 (E6K, C38S, K53A) (from UniProt Q14116 37-193) (ligand)
23	0.00397	177000	42.5	IL-18 variant SEQ ID NO: 57 with 30 kDa PEG (E6K, C38S, K53A, C68-30kDPEG) (from UniProt Q14116 37-193) (ligand)
2.05	0.00301	1.47e+06	36.4	IL-18 variant SEQ ID NO: 59 (E6K, C38A, K53A) (from UniProt Q14116 37-193) (ligand)
19.4	0.00355	199000	75.2	IL-18 variant SEQ ID NO: 59 with 30 kDa PEG (E6K, C38A, K53A, C68-30kDPEG) (from UniProt Q14116 37-193) (ligand)
1.7	0.00308	1.87e+06	24.8	IL-18 variant SEQ ID NO: 60 (E6K, C38Q, K53A) (from UniProt Q14116 37-193) (ligand)
22	0.00395	193000	63.7	IL-18 variant SEQ ID NO: 60 with 30 kDa PEG (E6K, C38Q, K53A, C68-30kPEG) (from UniProt Q14116 37-193) (ligand)
2.1	0.0036	1.74e+06		IL-18 variant SEQ ID NO: 61 (E6K, C38A, K53A, C76A) (from UniProt Q14116 37-193) (ligand)
37.4	0.00382	102000		IL-18 variant SEQ ID NO: 61 with 30 kDa PEG (E6K, C38A, K53A, C76A, C68-30kPEG) (from UniProt Q14116 37-193) (ligand)
			1.24	IL-18 variant SEQ ID NO: 211 (V11I, T34A, C38A, K53A, C76A, C127A) (from UniProt Q14116 37-193) (ligand)
			2.88	IL-18 variant SEQ ID NO: 212 (V11I, D35A, C38A, K53A, C76A, C127A) (from UniProt Q14116 37-193) (ligand)
			1.12	IL-18 variant SEQ ID NO: 213 (V11I, S36A, C38A, K53A, C76A, C127A) (from UniProt Q14116 37-193) (ligand)
			4.55	IL-18 variant SEQ ID NO: 214 (V11I, D37A, C38A, K53A, C76A, C127A) (from UniProt Q14116 37-193) (ligand)
			2.12	IL-18 variant SEQ ID NO: 215 (V11I, E31A, D37A, C38A, K53A, C76A, C127A) (from UniProt Q14116 37-193) (ligand)
			0.74	IL-18 variant SEQ ID NO: 216 (V11I, C38A, D40A, K53A, C76A, C127A) (from UniProt Q14116 37-193) (ligand)

Kd [1] [nM]	koff [1] [s⁻¹]	kon [1] [M⁻¹ s⁻¹]	Kd [2] [nM]	Substance
			18.5	IL-18 variant SEQ ID NO: 217 (V11I, C38A, N41A, K53A, C76A, C127A) (from UniProt Q14116 37-193) (ligand)
			13.7	IL-18 variant SEQ ID NO: 218 (V11I, C38A, K53A, C76A, C127A, D132A) (from UniProt Q14116 37-193) (ligand)
			1.24	IL-18 variant SEQ ID NO: 219 (V11I, C38A, K53A, C76A, G108A, C127A) (from UniProt Q14116 37-193) (ligand)
			0.55	IL-18 variant SEQ ID NO: 220 (V11I, C38A, K53A, C76A, H109A, C127A) (from UniProt Q14116 37-193) (ligand)
			0.71	IL-18 variant SEQ ID NO: 221 (V11I, C38A, K53A, C76A, D110A, C127A) (from UniProt Q14116 37-193) (ligand)
			0.06	IL-18 variant SEQ ID NO: 222 (K8R, V11I, C38A, C76A, Q103E, C127A) (from UniProt Q14116 37-193) (ligand)
			0.85	IL-18 variant SEQ ID NO: 223 (K8E, V11I, C38A, C76A, Q103R, C127A) (from UniProt Q14116 37-193) (ligand)
			0.05	IL-18 variant SEQ ID NO: 224 (V11I, C38A, C76A, Q103K, C127A) (from UniProt Q14116 37-193) (ligand)
			0.08	IL-18 variant SEQ ID NO: 225 (V11I, C38A, S55H, C76A, C127A) (from UniProt Q14116 37-193) (ligand)
			0.15	IL-18 variant SEQ ID NO: 226 (V11I, C38A, S55R, C76A, C127A) (from UniProt Q14116 37-193) (ligand)
			0.02	IL-18 variant SEQ ID NO: 227 (V11I, C38A, S55T, C76A, C127A) (from UniProt Q14116 37-193) (ligand)
			0.04	IL-18 variant SEQ ID NO: 228 (V11I, C38A, C76A, S105I, C127A) (from UniProt Q14116 37-193) (ligand)
			0.05	IL-18 variant SEQ ID NO: 229 (V11I, C38A, C76A, S105K, C127A) (from UniProt Q14116 37-193) (ligand)
			0.14	IL-18 variant SEQ ID NO: 230 (K8L, E6K, V11I, C38A, K53A, T63A, C76A, C127A) (from UniProt Q14116 37-193) (ligand)
			25.8	IL-18 variant SEQ ID NO: 232 (E6K, V11I, C38A, I49M, K53A, T63A, C76A, C127A) (from UniProt Q14116 37-193) (ligand)
			5.46	IL-18 variant SEQ ID NO: 240 (E6R, V11I, C38A, K53A, T63A, C76A, C127A) (from UniProt Q14116 37-193) (ligand)
			2.25	IL-18 variant SEQ ID NO: 243 (Y1M, E6K, V11I, C38A, K53A, T63A, C76A, C127A) (from UniProt Q14116 38-193) (ligand)
